Measured values published in PMC7202667, “UNBRANCHED3 Expression and Inflorescence Development is Mediated by UNBRANCHED2 and the Distal Enhancer, KRN4, in Maize”.

Assays:
OBF1, MBP fusion = target: T1, OBF1, MBP fusion (Zea mays, UniProt P24068 1-151); experiment: EMSA; poly(dI-dC), 5 mM MgCl2; EMSA: 10 mM Tris pH 7.5, 50 mM KCl, 1 mM DTT, 5 mM MgCl2, 2.5% glycerol, poly(dI-dC), 0.05% NP-40; 20-40 ng protein, probe 10 fM (so in the source); room temperature; settings: protein: recombinant; tags: N-MBP (pMAL-c2x); chain copies: 2; label: 5'-biotin; blunt
T1 sequence: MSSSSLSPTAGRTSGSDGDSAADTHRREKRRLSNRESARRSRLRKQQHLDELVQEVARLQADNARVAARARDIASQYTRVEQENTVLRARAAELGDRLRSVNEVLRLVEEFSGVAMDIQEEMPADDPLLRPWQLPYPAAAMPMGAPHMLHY

OBF4, MBP fusion = target: T2, OBF4, MBP fusion (Zea mays, UniProt B4FFB3 1-396); experiment: as above; settings: protein: recombinant; tags: N-MBP (pMAL-c2x); chain copies: 2; label: 5'-biotin; blunt
T2 sequence: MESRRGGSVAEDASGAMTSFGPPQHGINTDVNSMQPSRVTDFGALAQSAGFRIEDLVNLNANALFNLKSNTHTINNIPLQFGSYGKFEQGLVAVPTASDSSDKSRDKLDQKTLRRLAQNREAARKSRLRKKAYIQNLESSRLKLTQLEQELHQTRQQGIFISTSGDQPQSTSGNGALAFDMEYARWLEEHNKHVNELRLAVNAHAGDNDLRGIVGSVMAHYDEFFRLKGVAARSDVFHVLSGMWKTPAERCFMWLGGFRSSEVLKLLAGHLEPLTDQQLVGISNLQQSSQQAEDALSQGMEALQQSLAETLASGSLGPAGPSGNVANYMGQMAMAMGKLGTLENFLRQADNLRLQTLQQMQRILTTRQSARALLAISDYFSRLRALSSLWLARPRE

B1: 3xE1 probe (3E1X) (dsDNA)
DNA 1: ACATGGCACGACACGTAGTGAACCACATGGCACGACACGTAGTGAACCACATGGCACGACACGTAGTGAACC
DNA 2: GGTTCACTACGTGTCGTGCCATGTGGTTCACTACGTGTCGTGCCATGTGGTTCACTACGTGTCGTGCCATGT
OBF1, MBP fusion
  binding result: binds
OBF4, MBP fusion
  binding result: binds
